Read-outs that look alike come from different tables or passages of the source.
Tests used:
Assay in all cases: fluorescence polarisation
R56A SufS [1] = target: T1, R56A SufS (E. coli, UniProt P77444 1-406, R56A, PLP cofactor (occupancy greater than 90%))
T1 sequence: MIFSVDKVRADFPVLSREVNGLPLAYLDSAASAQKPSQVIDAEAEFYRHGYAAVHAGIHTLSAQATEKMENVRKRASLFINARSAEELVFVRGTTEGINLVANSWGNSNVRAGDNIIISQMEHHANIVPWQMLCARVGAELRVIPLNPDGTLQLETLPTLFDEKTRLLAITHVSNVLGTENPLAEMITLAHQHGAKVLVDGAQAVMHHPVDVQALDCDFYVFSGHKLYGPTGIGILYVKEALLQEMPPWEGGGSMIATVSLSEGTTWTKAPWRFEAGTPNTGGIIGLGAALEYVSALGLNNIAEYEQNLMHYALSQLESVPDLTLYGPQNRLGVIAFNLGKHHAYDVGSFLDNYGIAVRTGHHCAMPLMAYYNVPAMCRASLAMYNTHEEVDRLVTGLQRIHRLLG

R359K SufS [2] = target: T2, R359K SufS (E. coli, UniProt P77444 1-406, R359K, PLP cofactor (occupancy greater than 90%))
T2 sequence: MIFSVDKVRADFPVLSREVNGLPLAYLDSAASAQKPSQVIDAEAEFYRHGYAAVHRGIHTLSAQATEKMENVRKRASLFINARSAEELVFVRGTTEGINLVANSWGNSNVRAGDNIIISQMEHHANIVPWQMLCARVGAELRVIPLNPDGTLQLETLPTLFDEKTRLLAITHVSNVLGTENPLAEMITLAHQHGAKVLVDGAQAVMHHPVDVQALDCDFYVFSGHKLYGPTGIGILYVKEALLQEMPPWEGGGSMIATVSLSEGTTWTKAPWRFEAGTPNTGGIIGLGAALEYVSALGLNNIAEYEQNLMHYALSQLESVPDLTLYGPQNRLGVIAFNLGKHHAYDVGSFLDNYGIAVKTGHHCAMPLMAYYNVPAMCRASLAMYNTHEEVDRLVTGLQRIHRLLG

R359A SufS [3] = target: T3, R359A SufS (E. coli, UniProt P77444 1-406, R359A, PLP cofactor (occupancy greater than 90%))
T3 sequence: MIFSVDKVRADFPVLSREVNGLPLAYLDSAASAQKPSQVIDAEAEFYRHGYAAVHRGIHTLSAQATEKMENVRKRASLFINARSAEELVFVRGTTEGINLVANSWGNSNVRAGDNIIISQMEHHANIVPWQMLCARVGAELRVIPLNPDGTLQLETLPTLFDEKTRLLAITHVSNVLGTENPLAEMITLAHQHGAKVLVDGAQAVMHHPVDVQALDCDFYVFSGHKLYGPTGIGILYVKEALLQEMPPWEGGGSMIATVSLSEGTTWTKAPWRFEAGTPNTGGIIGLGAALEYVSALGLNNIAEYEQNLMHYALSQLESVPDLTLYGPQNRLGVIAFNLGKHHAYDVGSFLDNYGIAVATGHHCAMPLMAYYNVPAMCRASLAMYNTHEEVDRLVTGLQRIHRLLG

WT SufS [4] = target: T4, WT SufS (E. coli, UniProt P77444 1-406, PLP cofactor attached to K226 as an internal aldimine)
T4 sequence: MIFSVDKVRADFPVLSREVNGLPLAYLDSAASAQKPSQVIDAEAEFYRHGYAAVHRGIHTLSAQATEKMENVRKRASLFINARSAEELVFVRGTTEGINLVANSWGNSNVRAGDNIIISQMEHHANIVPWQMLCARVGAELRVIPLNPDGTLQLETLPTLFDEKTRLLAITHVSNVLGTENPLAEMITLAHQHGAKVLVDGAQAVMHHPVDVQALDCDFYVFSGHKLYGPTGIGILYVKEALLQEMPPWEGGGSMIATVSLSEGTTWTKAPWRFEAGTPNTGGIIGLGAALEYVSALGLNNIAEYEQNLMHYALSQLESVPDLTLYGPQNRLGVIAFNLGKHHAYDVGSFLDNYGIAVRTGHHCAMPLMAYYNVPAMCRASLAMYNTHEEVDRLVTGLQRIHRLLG

R56K SufS [5] = target: T5, R56K SufS (E. coli, UniProt P77444 1-406, R56K, PLP cofactor (occupancy greater than 90%))
T5 sequence: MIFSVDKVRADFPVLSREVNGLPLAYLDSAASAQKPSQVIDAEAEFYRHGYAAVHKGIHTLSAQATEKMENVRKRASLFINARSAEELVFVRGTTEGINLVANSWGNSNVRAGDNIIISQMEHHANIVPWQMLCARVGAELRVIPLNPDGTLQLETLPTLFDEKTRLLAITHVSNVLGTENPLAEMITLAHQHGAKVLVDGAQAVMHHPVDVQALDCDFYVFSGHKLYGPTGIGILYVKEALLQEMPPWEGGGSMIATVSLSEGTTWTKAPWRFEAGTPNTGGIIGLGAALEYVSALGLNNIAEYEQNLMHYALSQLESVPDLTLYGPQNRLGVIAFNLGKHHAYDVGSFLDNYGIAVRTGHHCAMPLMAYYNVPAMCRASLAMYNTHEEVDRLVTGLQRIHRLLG

R56A SufS [6] = target: T1, R56A SufS; remark: listed apart in the source
R359K SufS [7] = target: T2, R359K SufS; remark: listed apart in the source
R359A SufS [8] = target: T3, R359A SufS; remark: listed apart in the source
WT SufS [9] = target: T4, WT SufS; remark: listed apart in the source
R56K SufS [10] = target: T5, R56K SufS; remark: listed apart in the source

B1: BODIPY-FL labeled C51A/E107C SufE (natural protein, E. coli, UniProt P76194 1-138, looked up)
chain: MALLPDKEKLLRNFLRCANWEEKYLYIIELGQRLPELRDEDRSPQNSIQGAQSQVWIVMRQNAQGIIELQGDSDAAIVKGLIAVVFILYDQMTPQDIVNFDVRPWFCKMALTQHLTPSRSQGLEAMIRAIRAKAAALS
modifications: BODIPY FL maleimide label (labelling efficiency 60-80%)
Kd (R56A SufS [1]): 5.8 ± 0.9 µM
Kd (R359K SufS [2]): 4.6 ± 0.5 µM
Kd (R359A SufS [3]): 0.9 ± 0.2 µM
Kd (WT SufS [4]): 2.5 ± 0.3 µM
Kd (R56K SufS [5]): 8.5 ± 1.1 µM
Kd (R56A SufS [6]): 4 ± 0.4 µM
Kd (R359K SufS [7]): 2.8 ± 0.3 µM
Kd (R359A SufS [8]): 0.3 ± 0.1 µM
Kd (WT SufS [9]): 0.2 ± 0.1 µM
Kd (R56K SufS [10]): 2.8 ± 0.3 µM
